{"source": "patent US20210322524A1", "about": "(CASE WESTERN RESERVE UNIVERSITY, published 2021)", "binders": {"B1": {"name": "ATAD3A (endogenous, mouse cells and mouse striatum) (other, UniProt Q925I1 2-591, looked up)", "chain": "SWLFGIKGPKGEGTGPPLPLPPAQPGAEGGGDRGAGDRPSPKDKWSNFDPTGLERAAKAARELEHSRHAKEALSLAQMQEQTLQLEQQSKLKEYEAAVEQLKSEQIRVQAEERRKTLTEETRQHQARAQYQDKLARQRYEDQLKQQQLLNEENLRKQEESVQKQEAIRRATVEREMELRHKNEMLRVEAEARARAKADRENADIIREQIRLKAAEHRQTILESIRTAGTLLGEGFRAFVTDWDKVTATVAGLTLLAVGVYSAKNATSVAGRYIEARLGKPSLVRETSRISVLEALRHPIQVSRRLVSRPQDALEGVILSPSLEARVRDIAIATRNTKKNKSLYRNVLMYGPPGTGKTLFAKKLALHSGMDYAIMTGGDVAPMGREGVTAMHKVFDWASTSRRGLLLFVDEADAFLRKRATEKISEDLRATLNAFLHRTGQHSSKFMLVLASNQPEQFDWAINDRIDEMVCFALPQREERERLVRMYFDKYVLKPATEGKQRLKVAQFDYGKKCSEVAQLTEGMSGREIAQLAVAWQAMAYSSEDGVLTEAMMDARVQDAVQQHQQKMQWLKVERPDSQTNKPPHPSLLSC", "notes": "Endogenous protein in lysates; also called endogenous ATAD3A"}, "B2": {"name": "ATAD3A (endogenous, human cells and tissue) (other, UniProt Q9NVI7 2-586, looked up)", "chain": "SWLFGINKGPKGEGAGPPPPLPPAQPGAEGGGDRGLGDRPAPKDKWSNFDPTGLERAAKAARELEHSRYAKDALNLAQMQEQTLQLEQQSKLKEYEAAVEQLKSEQIRAQAEERRKTLSEETRQHQARAQYQDKLARQRYEDQLKQQQLLNEENLRKQEESVQKQEAMRRATVEREMELRHKNEMLRVEAEARARAKAERENADIIREQIRLKAAEHRQTVLESIRTAGTLFGEGFRAFVTDWDKVTATVAGLTLLAVGVYSAKNATLVAGRFIEARLGKPSLVRETSRITVLEALRHPIQVSRRLLSRPQDALEGVVLSPSLEARVRDIAIATRNTKKNRSLYRNILMYGPPGTGKTLFAKKLALHSGMDYAIMTGGDVAPMGREGVTAMHKLFDWANTSRRGLLLFVDEADAFLRKRATEKISEDLRATLNAFLYRTGQHSNKFMLVLASNQPEQFDWAINDRINEMVHFDLPGQEERERLVRMYFDKYVLKPATEGKQRLKLAQFDYGRKCSEVARLTEGMSGREIAQLAVSWQATAYASEDGVLTEAMMDTRVQDAVQQHQQKMCWLKAEGPGRGDEPSPS", "notes": "Endogenous protein in lysates"}, "B3": {"name": "Myc-tagged ATAD3A (other, human, UniProt Q9NVI7 1-586, looked up)", "chain": "MSWLFGINKGPKGEGAGPPPPLPPAQPGAEGGGDRGLGDRPAPKDKWSNFDPTGLERAAKAARELEHSRYAKDALNLAQMQEQTLQLEQQSKLKEYEAAVEQLKSEQIRAQAEERRKTLSEETRQHQARAQYQDKLARQRYEDQLKQQQLLNEENLRKQEESVQKQEAMRRATVEREMELRHKNEMLRVEAEARARAKAERENADIIREQIRLKAAEHRQTVLESIRTAGTLFGEGFRAFVTDWDKVTATVAGLTLLAVGVYSAKNATLVAGRFIEARLGKPSLVRETSRITVLEALRHPIQVSRRLLSRPQDALEGVVLSPSLEARVRDIAIATRNTKKNRSLYRNILMYGPPGTGKTLFAKKLALHSGMDYAIMTGGDVAPMGREGVTAMHKLFDWANTSRRGLLLFVDEADAFLRKRATEKISEDLRATLNAFLYRTGQHSNKFMLVLASNQPEQFDWAINDRINEMVHFDLPGQEERERLVRMYFDKYVLKPATEGKQRLKLAQFDYGRKCSEVARLTEGMSGREIAQLAVSWQATAYASEDGVLTEAMMDTRVQDAVQQHQQKMCWLKAEGPGRGDEPSPS", "notes": "also called Myc-ATAD3A; ATAD3A-WT (heterodimer partner); not shown: Myc tag (pCMV-Myc vector)"}, "B4": {"name": "ATAD3A-Flag protein (human ATAD3A wildtype, Flag-tagged) (other, UniProt Q9NVI7 1-586, looked up)", "chain": "B3 chain", "notes": "Made cell-free (TNT system) from pcDNA3.1(+)-ATAD3A-Flag for the in vitro assays, or expressed in HEK293 cells; the same construct is used for both here; also called ATAD3A WT; flag-tagged ATAD3A; not shown: Flag tag"}, "B5": {"name": "ATAD3A K135Q (Flag-tagged) (other, human, UniProt Q9NVI7 1-586, looked up)", "chain": "B3 chain with K135Q", "notes": "Expressed in HEK293 cells; also called K135Q mutant; acetyl-mimetic ATAD3A K135Q mutant; not shown: Flag tag"}, "B6": {"name": "ATAD3A K135R (Flag-tagged) (other, human, UniProt Q9NVI7 1-586, looked up)", "chain": "B3 chain with K135R", "notes": "Expressed in HEK293 cells; also called K135R mutant; acetyl-deficient mutant K135R; not shown: Flag tag"}, "B7": {"name": "ATAD3A K135E (Flag-tagged) (other, human, UniProt Q9NVI7 1-586, looked up)", "chain": "B3 chain with K135E", "notes": "Expressed in HEK293 cells; also called K135E mutant; acetyl-deficient mutant K135E; not shown: Flag tag"}}, "key": {"[1]": {"biological_target": "the molecule itself", "experiment": "self-association; western blot under non-reducing conditions"}, "[2]": {"biological_target": "T1, Drp1 (endogenous, human cells and tissue) (human, UniProt O00429 1-736, limits assumed)", "T1 construct": "Endogenous protein in lysates; also called Dynamin-related protein 1", "T1 sequence (O00429 whole entry)": "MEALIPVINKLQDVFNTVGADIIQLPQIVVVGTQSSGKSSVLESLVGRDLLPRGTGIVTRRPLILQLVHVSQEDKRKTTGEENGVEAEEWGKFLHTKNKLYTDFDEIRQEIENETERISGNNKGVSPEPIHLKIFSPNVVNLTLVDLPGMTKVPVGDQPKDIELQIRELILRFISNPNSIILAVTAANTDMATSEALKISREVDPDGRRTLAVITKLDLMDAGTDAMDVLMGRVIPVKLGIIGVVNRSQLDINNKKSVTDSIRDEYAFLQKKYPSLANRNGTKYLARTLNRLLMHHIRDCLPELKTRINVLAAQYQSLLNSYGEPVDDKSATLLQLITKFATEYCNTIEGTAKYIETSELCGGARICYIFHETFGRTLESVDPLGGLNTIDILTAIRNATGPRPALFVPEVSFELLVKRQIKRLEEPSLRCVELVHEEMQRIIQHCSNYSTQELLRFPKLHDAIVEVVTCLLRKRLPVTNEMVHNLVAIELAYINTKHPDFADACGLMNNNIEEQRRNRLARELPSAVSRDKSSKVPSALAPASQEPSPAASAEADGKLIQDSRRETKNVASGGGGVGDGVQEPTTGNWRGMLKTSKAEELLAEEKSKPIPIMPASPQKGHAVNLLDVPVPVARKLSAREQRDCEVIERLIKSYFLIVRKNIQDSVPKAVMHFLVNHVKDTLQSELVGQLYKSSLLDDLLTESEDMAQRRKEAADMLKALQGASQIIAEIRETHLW", "experiment": "anti-Drp1 affinity purification and tandem mass spectrometry, neurons from HD patient iPS cells"}, "[3]": {"biological_target": "B4", "experiment": "co-IP"}, "[4]": {"biological_target": "the molecule itself", "experiment": "self-association; western blot with or without β-ME, HEK293 cells"}, "[5]": {"biological_target": "T1, Drp1 (endogenous, human cells and …)", "experiment": "IP of total lysates of transfected HEK293 cells"}, "[6]": {"biological_target": "B3", "experiment": "anti-Flag IP, anti-Myc western blot"}, "[7]": {"biological_target": "T2, GST-Drp1 recombinant protein (UniProt O00429-3 1-710, limits assumed)", "T2 construct": "Bought (Abnova); also called Dynamin-related protein 1; not shown: GST tag", "T2 sequence (O00429 other isoform, or with tags, fused parts or gaps limits assumed)": "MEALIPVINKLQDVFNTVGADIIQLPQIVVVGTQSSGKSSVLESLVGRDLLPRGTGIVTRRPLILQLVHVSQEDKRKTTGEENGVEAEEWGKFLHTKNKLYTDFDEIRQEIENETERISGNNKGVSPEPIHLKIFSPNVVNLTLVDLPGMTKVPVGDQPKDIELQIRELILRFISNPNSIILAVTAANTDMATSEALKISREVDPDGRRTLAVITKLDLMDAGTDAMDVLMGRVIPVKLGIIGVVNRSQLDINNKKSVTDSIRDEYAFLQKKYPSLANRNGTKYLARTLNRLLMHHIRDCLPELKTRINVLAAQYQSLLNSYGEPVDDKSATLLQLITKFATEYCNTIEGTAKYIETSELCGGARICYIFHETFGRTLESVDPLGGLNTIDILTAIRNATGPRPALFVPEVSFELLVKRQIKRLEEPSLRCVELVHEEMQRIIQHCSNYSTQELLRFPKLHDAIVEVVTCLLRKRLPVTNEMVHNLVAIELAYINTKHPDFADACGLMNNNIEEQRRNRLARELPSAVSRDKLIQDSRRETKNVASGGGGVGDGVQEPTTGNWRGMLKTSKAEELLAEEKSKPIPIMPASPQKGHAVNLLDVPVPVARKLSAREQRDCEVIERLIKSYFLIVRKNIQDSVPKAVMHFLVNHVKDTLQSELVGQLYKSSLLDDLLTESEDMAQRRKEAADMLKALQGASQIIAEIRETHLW", "experiment": "biotin-DA1 with purified protein, streptavidin beads, western blot"}, "[8]": {"biological_target": "B1", "experiment": "biotin-DA1 (10 µM) with total lysates of HD striatal cells, streptavidin beads, western blot"}, "[9]": {"biological_target": "B4", "experiment": "biotin-DA1 (10 µM) with purified protein, streptavidin beads, western blot"}, "[10]": {"biological_target": "T3, VDAC (OMM protein, endogenous in HD striatal cells) (mouse, UniProt Q3U6K8 2-283)", "T3 construct": "also called voltage-dependent anion channel", "experiment": "biotin-DA1 with total lysates of HD striatal cells, streptavidin beads, western blot"}, "[11]": {"biological_target": "T4, Drp1 (endogenous, mouse striatal cells and mouse striatum) (mouse, UniProt Q8K1M6 1-736, limits assumed)", "T4 construct": "Endogenous protein in lysates; also called Dynamin-related protein 1", "T4 sequence (Q8K1M6 whole entry)": "as the sequence (O00429 whole entry) above, with I57V, Q72P, I134V, V528G, S548P, S563N, A571P, G573A, V577I, V581G counted along it", "experiment": "biotin-DA1 with total lysates of HD striatal cells, streptavidin beads, western blot"}, "[12]": {"biological_target": "ClpP (mitochondrial matrix protein, endogenous in HD striatal cells) (mouse, UniProt O88696 53-272)", "sequence (O88696 53-272 limits assumed)": "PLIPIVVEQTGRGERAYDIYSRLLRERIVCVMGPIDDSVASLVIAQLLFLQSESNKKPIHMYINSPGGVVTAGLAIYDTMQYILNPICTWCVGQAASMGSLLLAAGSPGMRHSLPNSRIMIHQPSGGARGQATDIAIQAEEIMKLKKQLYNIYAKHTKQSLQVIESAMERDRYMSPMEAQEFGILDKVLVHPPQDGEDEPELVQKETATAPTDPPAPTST", "experiment": "biotin-DA1 with total lysates of HD striatal cells, streptavidin beads, western blot"}}, "note": "Substitutions are numbered along the chain they refer to. Names and notes keep the numbering of the source. Where no end group is shown, it is not given here."}
{"binder": "B1", "values": [{"measurement": "binding result", "setting": "[1]", "value": "binds"}]}
{"binder": "B2", "values": [{"measurement": "binding result", "setting": "[2]", "value": "binds"}, {"measurement": "binding result", "setting": "[1]", "value": "binds"}]}
{"binder": "B3", "values": [{"measurement": "binding result", "setting": "[3]", "value": "binds"}]}
{"binder": "B4", "values": [{"measurement": "binding result", "setting": "[4]", "value": "binds"}]}
{"binder": "B5", "values": [{"measurement": "binding result", "setting": "[5]", "value": "no binding"}, {"measurement": "binding result", "setting": "[6]", "value": "binds"}, {"measurement": "binding result", "setting": "[4]", "value": "binds"}]}
{"binder": "B6", "values": [{"measurement": "binding result", "setting": "[5]", "value": "binds"}, {"measurement": "binding result", "setting": "[4]", "value": "binds"}]}
{"binder": "B7", "values": [{"measurement": "binding result", "setting": "[5]", "value": "binds"}, {"measurement": "binding result", "setting": "[6]", "value": "binds"}, {"measurement": "binding result", "setting": "[4]", "value": "binds"}]}
{"binder": "YGRKKRRQRRRGGEDKRKT (also: biotin, position not given here, also called biotin-DA1)", "note": "[Biotin-conjugated DA1]", "values": [{"measurement": "binding result", "setting": "[7]", "value": "no binding (tested: 10 µM)"}, {"measurement": "binding result", "setting": "[8]", "value": "binds"}, {"measurement": "binding result", "setting": "[9]", "value": "binds"}, {"measurement": "binding result", "setting": "[10]", "value": "no binding (tested: 10 µM)"}, {"measurement": "binding result", "setting": "[11]", "value": "no binding (tested: 10 µM)"}, {"measurement": "binding result", "setting": "[12]", "value": "no binding (tested: 10 µM)"}]}
